According to patent US20050037339A1:
Read-outs that look alike come from different tables or passages of the source.

How the values were obtained:
[1] = target: ErbB2 on cells (SKBR3 high, SK-OV-3 moderate, MCF7 low expression) (human) (UniProt P04626); assay: 3.0×10^11 cfu on SKBR3 cells 2 h at 37 °C, stripping buffer wash titered on E. coli TG1
[2] = target: ErbB2 on cells (SKBR3 high, SK-OV-3 moderate, MCF7 low expression) (human) (UniProt P04626); assay: cell-based or functional assay
[3] = target: ErbB2 on cells (SKBR3 high, SK-OV-3 moderate, MCF7 low expression) (human) (UniProt P04626); assay: 5.0×10^11 phage on ErbB2 expressing SKBR3 cells at 37 °C, low pH glycine eluate titered on E. coli TG1
[4] = target: ErbB2 on cells (SKBR3 high, SK-OV-3 moderate, MCF7 low expression) (human) (UniProt P04626); assay: FACS on SKBR3 cells, anti-M13 and streptavidin-PE detection
[5] = target: ErbB2 on cells (SKBR3 high, SK-OV-3 moderate, MCF7 low expression) (human) (UniProt P04626)
[6] = target: ErbB2 on cells (SKBR3 high, SK-OV-3 moderate, MCF7 low expression) (human) (UniProt P04626); remark: listed apart in the source
[7] = target: recombinant ErbB2 extracellular domain (UniProt P04626); assay: SPR (BIAcore)

C6.5 scFv phage (fd), sequence (P03661 19-424): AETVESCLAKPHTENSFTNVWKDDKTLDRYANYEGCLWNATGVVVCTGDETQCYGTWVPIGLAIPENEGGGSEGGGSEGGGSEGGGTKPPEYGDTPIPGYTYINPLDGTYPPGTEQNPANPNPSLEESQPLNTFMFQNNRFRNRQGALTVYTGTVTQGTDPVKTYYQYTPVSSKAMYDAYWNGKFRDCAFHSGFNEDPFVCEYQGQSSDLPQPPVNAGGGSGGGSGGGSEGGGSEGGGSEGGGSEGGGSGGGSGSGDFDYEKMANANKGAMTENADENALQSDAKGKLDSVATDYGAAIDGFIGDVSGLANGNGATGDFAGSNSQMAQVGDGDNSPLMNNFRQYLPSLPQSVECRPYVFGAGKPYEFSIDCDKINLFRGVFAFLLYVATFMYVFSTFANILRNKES
fd-F5 phage (multivalent), sequence (P03661 19-424): as above
C6.5 scFv phagemid, sequence (P69168 19-424): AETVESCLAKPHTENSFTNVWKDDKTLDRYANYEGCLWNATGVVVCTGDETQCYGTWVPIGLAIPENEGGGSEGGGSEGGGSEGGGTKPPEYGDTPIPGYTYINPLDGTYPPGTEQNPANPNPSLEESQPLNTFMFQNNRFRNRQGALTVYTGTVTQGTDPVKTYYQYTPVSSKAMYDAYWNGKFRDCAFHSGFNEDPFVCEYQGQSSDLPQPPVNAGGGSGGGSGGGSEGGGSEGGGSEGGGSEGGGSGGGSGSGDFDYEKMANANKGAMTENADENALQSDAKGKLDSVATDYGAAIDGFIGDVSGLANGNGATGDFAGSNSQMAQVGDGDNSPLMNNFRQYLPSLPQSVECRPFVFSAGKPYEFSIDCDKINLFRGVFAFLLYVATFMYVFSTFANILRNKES
F5-phagemid (monovalent), sequence (P69168 19-424): as above
C6ML3-9 scFv phagemid, sequence (P69168 19-424): as above
C6.5 diabody phagemid, sequence (P69168 19-424): as above
anti-botulinum scFv phagemid (clone 3D12), sequence (P69168 19-424): as above

In the case of “C6.5 diabody phagemid (from UniProt P69168 19-424)”, the Cell Surface Phage Titer, 1st Wash [1] is reported as 1.8e+08 cfu, the Cell Surface Phage Titer, 2nd Wash [1] is reported as 1.2e+07 cfu and the Cell Surface Phage Titer, 3rd Wash [1] is reported as 1.3e+06 cfu. For the same substance, the Intracellular Phage Titer [2] was 4.5e+07 cfu, the Lysed cell fraction (titer of internalized phage) [2] was 1.7e+07 phage titer and the cells with internalized phage (confocal microscopy, SKBR3 cells) [2] was 20%. For the same substance, the input titer below which phage could not be recovered from within SKBR3 cells (input phage titer) [2] was 30000, the titer of cell surface bound phage, 1st glycine wash [3] was 1.8e+07 phage titer and the titer of cell surface bound phage, 2nd glycine wash [3] was 2.8e+06 phage titer.

Work on C6.5 phage (Example 2) (scFv) yielded a Lysed cell fraction (titer of internalized phage) [2] of 6.8e+07 phage titer, a titer of cell surface bound phage, 1st glycine wash [3] of 1.2e+07 phage titer and a titer of cell surface bound phage, 2nd glycine wash [3] of 5.2e+06 phage titer.

Work on “C6.5 scFv phage (fd) (from UniProt P03661 19-424)” yielded a Cell Surface Phage Titer, 1st Wash [1] of 2.3e+08 cfu, a Cell Surface Phage Titer, 2nd Wash [1] of 6.2e+07 cfu and a Cell Surface Phage Titer, 3rd Wash [1] of 5.6e+06 cfu. The Intracellular Phage Titer [2] was 2.2e+08 cfu and the input titer below which phage could not be recovered from within SKBR3 cells (input phage titer) [2] was 30000.

In the case of “C6.5 scFv phagemid (from UniProt P69168 19-424)”, the Cell Surface Phage Titer, 1st Wash [1] is reported as 6e+07 cfu, the Cell Surface Phage Titer, 2nd Wash [1] is reported as 9.6e+06 cfu and the Cell Surface Phage Titer, 3rd Wash [1] is reported as 760000 cfu. It also gave an Intracellular Phage Titer [2] of 5.2e+06 cfu, an enrichment of C6.5 scFv phagemid over wild type fd phage in the cell lysate, with trypsinization [2] of 209 fold and an enrichment of C6.5 scFv phagemid over wild type fd phage in the cell lysate, without trypsinization [2] of 6.1 fold. It also gave an input titer below which phagemid could not be recovered from within SKBR3 cells (input phage titer) [2] of 300000.

C6.5cys scFv conjugated to liposomes gave a Total uptake of scFv-conjugated liposomes by SKBR3 cells [2] of 3.4 and a share of the liposome uptake that was internalized (SKBR3 cells) [2] of 70%.

Substance “C6ML3-9 scFv phagemid (from UniProt P69168 19-424)” has a Cell Surface Phage Titer, 1st Wash [1] of 2.5e+08 cfu, a Cell Surface Phage Titer, 2nd Wash [1] of 1.4e+07 cfu and a Cell Surface Phage Titer, 3rd Wash [1] of 3.2e+06 cfu. The Intracellular Phage Titer [2] was 2.7e+07 cfu and the input titer below which phagemid could not be recovered from within SKBR3 cells (input phage titer) [2] was 3e+06.

“F5-phagemid (monovalent) (from UniProt P69168 19-424) (scFv)” showed a lowest phage concentration at which binding could be detected [4] of 1e+10 cfu/ml, a % of GFP positive cells (SKBR3, 48 hours; 0.78 µg reporter plasmid DNA) [2] of 0.64% and a % of GFP positive cells (SKBR3, 48 hours; 3.1 µg reporter plasmid DNA) [2] of 1.44%. For the same substance, the % of GFP positive cells (SKBR3, 48 hours; 15 µg reporter plasmid DNA) [2] was 3.84%, the GFP expressing SKBR3 cells after 48 hrs (FACS) [2] was 1.37% and the GFP expressing SKBR3 cells in a co-culture of SKBR3 and MCF7 cells (FACS) [2] was 1.91%. It also gave a GFP positive SKBR3 cells at the minimal phage concentration [2] of 0.12% and a maximum percentage of GFP positive SKBR3 cells in the time course [2] of 4.5%.

Substance “anti-botulinum scFv phagemid (clone 3D12) (from UniProt P69168 19-424)” has an Intracellular Phage Titer [2] of 1.5e+06 cfu, a Lysed cell fraction (titer of internalized phage) [2] of 600000 phage titer and a titer of cell surface bound phage, 1st glycine wash [5] of 600000 phage titer. For the same substance, the titer of cell surface bound phage, 2nd glycine wash [5] was 100000 phage titer, the Cell Surface Phage Titer, 1st Wash [6] was 2.8e+07 cfu and the Cell Surface Phage Titer, 2nd Wash [6] was 3.6e+06 cfu. For the same substance, the Cell Surface Phage Titer, 3rd Wash [6] was 280000 cfu.

“fd-F5 phage (multivalent) (from UniProt P03661 19-424) (scFv)” showed a lowest phage concentration at which binding could be detected [4] of 1e+08 cfu/ml, a % of GFP positive cells (SKBR3, 48 hours; 1.25 ng reporter plasmid DNA) [2] of 0.57% and a % of GFP positive cells (SKBR3, 48 hours; 2.25 ng reporter plasmid DNA) [2] of 0.87%. For the same substance, the % of GFP positive cells (SKBR3, 48 hours; 5 ng reporter plasmid DNA) [2] was 1.69%.

Work on native anti-ErbB2 F5 scFv yielded a Kd [7] of 160 nM.
